In the supplement of paper PMC10567573:

B1: MFF (parent)
chain: MAEISRIQYEMEYTEGISQRMRVP

Variants of: B1
Test: protein stability index of a GFP-peptide fusion (GPS, HEK-293T) (PSI 1-6); higher = more stable
Conditions: c terminus: a fixed tail appended
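Further: lentivirally expressed fusions sorted by FACS into six bins by GFP to DsRed ratio, PSI derived from sequencing read proportions per bin multiplied by bin number.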

Protein stability index, by site and new letter:
Y9: N 3.07, F 2.11
A2: M 2.03, R 2.54, V 1.96, F 1.58, K 2.77, C 2.25, H 2.45, P 3.33, Q 2.76, Y 1.95, L 1.86
I7: E 4.11, N 3.6, Q 3.43, P 3.37, L 2.29, A 3.22, C 2.56, H 3, Y 2.58
G16: E 3.12, H 2.02, Y 1.48, P 3.13, I 1.62, N 2.72
T14: C 2.24, P 2.55, L 2.07, I 1.86, D 4.16
E12: Y 1.76, C 1.98, D 2.53, G 2.26, P 2.81, T 1.86, F 1.34
S18: N 2.98, H 2.13, I 1.66, W 1.89, R 2.27, Q 2.62, V 1.74, F 1.97, K 2.27, L 1.82, M 1.94, G 2.51
V23: A 2.31, Q 2.99, L 2.46, S 2.51, I 2.07, E 2.73, N 2.61
Y13: I 2.33, H 3.26, G 3.66, P 3.69
S5: E 2.95, C 1.88, Y 1.6, L 2.17, G 2.27, M 1.34, V 2.02, Q 2.36, P 3.52
I17: N 3.3, E 3.36, S 3.52, K 3.18, T 3.4, C 2.92
R22: M 2.38, A 2.63, H 2.46, T 2.98, I 1.84, G 2.46, D 2.6, E 2.86, P 2.56, Y 2.23
P24: V 1.84, F 1.54, K 2.98
M1: S 3.01, H 2.92, G 3.14, W 2.35, D 3.56, R 3.1, A 2.92, V 2.85, Q 3.56
Q19: N 3.06, E 2.54, V 1.62, A 2.47, H 2.34, I 1.89, Y 1.81, S 2.56
R6: Y 1.53, P 3.36, D 3.28, V 2.03, C 2.97, W 1.95
M21: C 2.32, S 3.31, G 3.62, E 3.58, D 3.41
E15: D 2.64, F 2.17, V 1.62, M 1.75, N 3.14, W 1.77
I4: N 3.71, K 3.58, S 3.42, W 2.89, A 3.38
E10: D 2.74, T 1.99, Q 2.76, V 1.89, Y 2.09, I 1.6, F 1.96
R20: M 2.13, E 3.1, W 1.67, A 2.01, P 2.73, C 2.41, S 2.27, Y 1.58, V 2.17, Q 2.3
E3: H 2.93, W 1.57, V 1.98, C 2.45, M 1.91
M11: A 3.68, R 3.19, C 3.04, V 2.89, K 3.27, W 1.99, E 4.06, P 3.2
Q8: C 1.9, S 2.71, V 1.45, Y 1.75, G 2.9, L 1.6, K 2.13
